Measurements published in the supplement of paper PMC10126150.
± gives the standard deviation of the averaged measurements.

Test system: ATP
Assay: switch fluorescence ratio, 500 uM ATP over buffer (Cy3 cluster intensity, sum of 5 cycles each) (fold (ratio)); higher = stronger signal-on switching upon ATP binding; sequences stand for … in TCGTCGGCAGCGTCAGATGTGTATAAGAGACAGTTTTTTTTTTTTTTTTTTTTTTTTT…TC
Settings: aptamer strand: ATP DNA aptamer (quencher-CACCTGGGGGAGTATTGCGGAGGAAGG + anchor), 100 nM annealed; ATP concentration: 500 uM
In short: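 Cy3-labelled switching-strand clusters on a modified Illumina MiSeq flow-cell were annealed to 100 nM quencher-labelled ATP aptamer and imaged first in selection buffer, then after 15 min with 500 uM ATP at 22 °C. NaOH stripping and re-annealing separated each of five buffer/ATP cycles, and clusters outside 100-1000 RFU were excluded. The fluorescence ratio sums target-cycle Cy3 intensity over buffer-cycle Cy3 intensity per cluster and averages it per switch-domain sequence.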
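Also: ATP exposure 15 min at 22 °C before imaging.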

Sequence TTACAGGGGG has a switch fluorescence ratio of 1.03 ± 0.057.

For TTACATAATT, the switch fluorescence ratio was 1.02 ± 0.044.

In the case of TTACATCTGG, the switch fluorescence ratio is reported as 0.9842 ± 0.007.

TTACATGTAG was tested, and the switch fluorescence ratio was 1.04 ± 0.013.

Work on TTACCAAAAC yielded a switch fluorescence ratio of 1.41 ± 0.54.

Sequence TTACCAGAGT has a switch fluorescence ratio of 1.02 ± 0.011.

TTACCATTCG gave a switch fluorescence ratio of 1.02 ± 0.019.

TTACCGTGTT gave a switch fluorescence ratio of 1.08 ± 0.037.

Sequence TTACGACGCA has a switch fluorescence ratio of 3.67 ± 0.76.

Sequence TTACGACTGT has a switch fluorescence ratio of 1.004 ± 0.0014.

With TTACGAGATT the switch fluorescence ratio was 1.01 ± 0.068.

Sequence TTACGAGTGG has a switch fluorescence ratio of 1.02 ± 0.025.

Sequence TTACGATTTT has a switch fluorescence ratio of 0.993 ± 0.039.

For TTACGCATCA, the switch fluorescence ratio was 1.14 ± 0.021.

With TTACGCCCTT the switch fluorescence ratio was 1.11 ± 0.08.

TTACGGAACT was tested, and the switch fluorescence ratio was 1.164 ± 0.0041.

Work on TTACGGAAGT yielded a switch fluorescence ratio of 1.11 ± 0.13.

Work on TTACGGAAT yielded a switch fluorescence ratio of 1.1 ± 0.14.

In the case of TTACGGACGA, the switch fluorescence ratio is reported as 1.317 ± 0.0043.

Sequence TTACGGCGCT has a switch fluorescence ratio of 1.06 ± 0.062.

For TTACGGGGAT, the switch fluorescence ratio was 1.04 ± 0.016.

For TTACGGGGGG, the switch fluorescence ratio was 1.02 ± 0.052.

TTACGGGTCC gave a switch fluorescence ratio of 0.961 ± 0.012.

With TTACGGTCCC the switch fluorescence ratio was 1.19 ± 0.24.

TTACGGTCTA was tested, and the switch fluorescence ratio was 1.03 ± 0.013.

Sequence TTACGGTGTC has a switch fluorescence ratio of 1.02 ± 0.025.

With TTACGGTGTT the switch fluorescence ratio was 1.1 ± 0.099.

TTACGTAATA was tested, and the switch fluorescence ratio was 1.34 ± 0.023.

For TTACGTGGGA, the switch fluorescence ratio was 1.02 ± 0.026.

With TTACGTGTCG the switch fluorescence ratio was 1.01 ± 0.068.

Work on TTACTATTTG yielded a switch fluorescence ratio of 0.961 ± 0.052.

With TTACTCATTT the switch fluorescence ratio was 1.017 ± 0.0018.

Sequence TTACTGGAAC has a switch fluorescence ratio of 1.06 ± 0.021.

Work on TTACTGGGGC yielded a switch fluorescence ratio of 1.03 ± 0.03.

With TTACTTCTGG the switch fluorescence ratio was 0.9796 ± 0.0017.

For TTACTTGACT, the switch fluorescence ratio was 1.116 ± 0.0085.

For TTACTTGGGT, the switch fluorescence ratio was 1.02 ± 0.052.

TTACTTTGAG showed a switch fluorescence ratio of 1.02 ± 0.048.

TTACTTTGGA was tested, and the switch fluorescence ratio was 1.03 ± 0.023.

For TTACTTTTTT, the switch fluorescence ratio was 1.02 ± 0.033.

In the case of TTAGAAAGCA, the switch fluorescence ratio is reported as 1 ± 0.033.

Work on TTAGAAAGGA yielded a switch fluorescence ratio of 1.01 ± 0.025.

TTAGAAGATT was tested, and the switch fluorescence ratio was 1 ± 0.044.

TTAGAAGGTG showed a switch fluorescence ratio of 1.16 ± 0.078.

TTAGAAGGTT gave a switch fluorescence ratio of 1 ± 0.026.

TTAGACCGAA gave a switch fluorescence ratio of 1.031 ± 0.0088.

TTAGACGATT gave a switch fluorescence ratio of 0.998 ± 0.025.

TTAGACGCTT was tested, and the switch fluorescence ratio was 1 ± 0.011.

With TTAGACGGC the switch fluorescence ratio was 0.978 ± 0.097.

In the case of TTAGAGAAAA, the switch fluorescence ratio is reported as 1.03 ± 0.079.

TTAGAGGGTT showed a switch fluorescence ratio of 1.01 ± 0.031.

In the case of TTAGAGTAGT, the switch fluorescence ratio is reported as 0.988 ± 0.013.

Work on TTAGAGTATG yielded a switch fluorescence ratio of 1.0206 ± 0.0007.

With TTAGAGTGGA the switch fluorescence ratio was 0.968 ± 0.024.

Work on TTAGATTGGT yielded a switch fluorescence ratio of 0.99 ± 0.033.

For TTAGATTTTT, the switch fluorescence ratio was 1.002 ± 0.0087.

TTAGCAAAAA showed a switch fluorescence ratio of 1.1 ± 0.075.

TTAGCATATT gave a switch fluorescence ratio of 1.01 ± 0.021.

TTAGCCGCGG showed a switch fluorescence ratio of 0.997 ± 0.016.

Sequence TTAGCCTCTT has a switch fluorescence ratio of 0.996 ± 0.032.

TTAGCGAGGC showed a switch fluorescence ratio of 2.13 ± 1.2.

Sequence TTAGCGGGA has a switch fluorescence ratio of 1 ± 0.023.

With TTAGCTACTG the switch fluorescence ratio was 1.03 ± 0.056.

TTAGCTCATT was tested, and the switch fluorescence ratio was 1 ± 0.02.

For TTAGCTTGAG, the switch fluorescence ratio was 1.01 ± 0.013.

TTAGCTTGCT was tested, and the switch fluorescence ratio was 1.019 ± 0.0035.

For TTAGGAAGTG, the switch fluorescence ratio was 0.999 ± 0.017.

TTAGGAATGG was tested, and the switch fluorescence ratio was 1.005 ± 0.0015.

In the case of TTAGGACTAG, the switch fluorescence ratio is reported as 0.9698 ± 0.0048.

Work on TTAGGACTT yielded a switch fluorescence ratio of 1.02 ± 0.073.

TTAGGAGGGT was tested, and the switch fluorescence ratio was 0.965 ± 0.037.

With TTAGGATAGT the switch fluorescence ratio was 0.998 ± 0.027.

For TTAGGATCGC, the switch fluorescence ratio was 1.02 ± 0.057.

In the case of TTAGGATGGC, the switch fluorescence ratio is reported as 1.2 ± 0.28.

Work on TTAGGATGTT yielded a switch fluorescence ratio of 1.0069 ± 0.00069.

Sequence TTAGGCCGGG has a switch fluorescence ratio of 0.998 ± 0.041.

TTAGGCGTTC gave a switch fluorescence ratio of 0.9892 ± 0.0096.

In the case of TTAGGCTTGT, the switch fluorescence ratio is reported as 0.996 ± 0.02.

With TTAGGGACGT the switch fluorescence ratio was 1.01 ± 0.026.

With TTAGGGATTG the switch fluorescence ratio was 1 ± 0.03.

Work on TTAGGGCATT yielded a switch fluorescence ratio of 1.11 ± 0.2.

In the case of TTAGGGGAGC, the switch fluorescence ratio is reported as 0.976 ± 0.021.

With TTAGGGGAGT the switch fluorescence ratio was 1.02 ± 0.066.

TTAGGGGCTT showed a switch fluorescence ratio of 1.02 ± 0.033.

With TTAGGGGGCC the switch fluorescence ratio was 1.07 ± 0.035.

For TTAGGGGGT, the switch fluorescence ratio was 0.976 ± 0.059.

In the case of TTAGGGGTAT, the switch fluorescence ratio is reported as 0.996 ± 0.05.

Work on TTAGGGGTGT yielded a switch fluorescence ratio of 1.01 ± 0.022.

TTAGGGTGTA gave a switch fluorescence ratio of 1.01 ± 0.046.

In the case of TTAGGGTTGG, the switch fluorescence ratio is reported as 0.99 ± 0.034.

TTAGGTGTCC was tested, and the switch fluorescence ratio was 1.08 ± 0.057.

TTAGGTGTCT was tested, and the switch fluorescence ratio was 0.998 ± 0.071.

TTAGGTTACT was tested, and the switch fluorescence ratio was 1.028 ± 0.0039.

In the case of TTAGGTTTGG, the switch fluorescence ratio is reported as 1.05 ± 0.15.

Sequence TTAGTAAAGA has a switch fluorescence ratio of 1.02 ± 0.013.

TTAGTAATGT gave a switch fluorescence ratio of 1.06 ± 0.072.

TTAGTAGCTA was tested, and the switch fluorescence ratio was 1.01 ± 0.013.

Work on TTAGTATATA yielded a switch fluorescence ratio of 0.9946 ± 0.0059.

TTAGTATCGA was tested, and the switch fluorescence ratio was 0.966 ± 0.029.

Work on TTAGTATTTT yielded a switch fluorescence ratio of 1.02 ± 0.087.

TTAGTCAATT gave a switch fluorescence ratio of 0.97 ± 0.0044.

TTAGTCAGGG gave a switch fluorescence ratio of 1.02 ± 0.024.

With TTAGTCCCCG the switch fluorescence ratio was 1.02 ± 0.038.

TTAGTGAAGT showed a switch fluorescence ratio of 1 ± 0.011.

With TTAGTGATAC the switch fluorescence ratio was 2.49 ± 0.42.

Sequence TTAGTGTACT has a switch fluorescence ratio of 1.07 ± 0.038.

For TTAGTTAAAT, the switch fluorescence ratio was 1.002 ± 0.0013.

TTAGTTAGTT was tested, and the switch fluorescence ratio was 0.98 ± 0.016.

Sequence TTAGTTGA has a switch fluorescence ratio of 0.999 ± 0.015.

Sequence TTAGTTGAGA has a switch fluorescence ratio of 1 ± 0.045.

TTAGTTGGTA was tested, and the switch fluorescence ratio was 0.987 ± 0.001.

TTAGTTTATC gave a switch fluorescence ratio of 1.02 ± 0.027.

TTAGTTTCTG showed a switch fluorescence ratio of 0.984 ± 0.046.

In the case of TTAGTTTTCG, the switch fluorescence ratio is reported as 1.01 ± 0.02.

Sequence TTATAAATAC has a switch fluorescence ratio of 1.91 ± 0.7.

TTATAAGACT showed a switch fluorescence ratio of 1.044 ± 0.0064.

Sequence TTATAAGTGG has a switch fluorescence ratio of 0.9907 ± 0.0072.

TTATAATAGG showed a switch fluorescence ratio of 1.02 ± 0.032.

TTATAATATG was tested, and the switch fluorescence ratio was 0.9846 ± 0.0035.

With TTATAATGCC the switch fluorescence ratio was 0.997 ± 0.078.

In the case of TTATACAGTG, the switch fluorescence ratio is reported as 1 ± 0.031.

TTATACATGT gave a switch fluorescence ratio of 0.973 ± 0.055.

TTATACCAAG showed a switch fluorescence ratio of 1.03 ± 0.023.

TTATAGATGG showed a switch fluorescence ratio of 0.971 ± 0.077.

Sequence TTATAGGGCC has a switch fluorescence ratio of 1 ± 0.025.

Sequence TTATAGTATG has a switch fluorescence ratio of 0.99 ± 0.043.

Work on TTATAGTATT yielded a switch fluorescence ratio of 0.957 ± 0.044.

TTATAGTGTT was tested, and the switch fluorescence ratio was 0.994 ± 0.012.

In the case of TTATATATCA, the switch fluorescence ratio is reported as 1.01 ± 0.013.

With TTATATCCTG the switch fluorescence ratio was 0.974 ± 0.038.

TTATATTGAT showed a switch fluorescence ratio of 1.017 ± 0.0029.

TTATATTTGA gave a switch fluorescence ratio of 0.98 ± 0.015.

In the case of TTATCACACT, the switch fluorescence ratio is reported as 1.02 ± 0.043.

For TTATCAGGTT, the switch fluorescence ratio was 1 ± 0.031.

Sequence TTATCAGTTT has a switch fluorescence ratio of 1.03 ± 0.062.

Sequence TTATCATACG has a switch fluorescence ratio of 1.03 ± 0.024.

TTATCATCTT showed a switch fluorescence ratio of 1.01 ± 0.032.

For TTATCCACGA, the switch fluorescence ratio was 1.03 ± 0.033.

Sequence TTATCCAGGA has a switch fluorescence ratio of 1.006 ± 0.0093.

With TTATCCGAGA the switch fluorescence ratio was 1.04 ± 0.019.

For TTATCGGCGC, the switch fluorescence ratio was 0.999 ± 0.014.

TTATCGGGCT showed a switch fluorescence ratio of 1.02 ± 0.023.

TTATCGGGGT was tested, and the switch fluorescence ratio was 1.019 ± 0.008.

TTATCGGTCT gave a switch fluorescence ratio of 0.9849 ± 0.0065.

Sequence TTATCGGTTG has a switch fluorescence ratio of 1.03 ± 0.043.

Sequence TTATCGTGTC has a switch fluorescence ratio of 1.02 ± 0.023.

With TTATCTAGGA the switch fluorescence ratio was 1 ± 0.028.

For TTATGAAGTT, the switch fluorescence ratio was 0.996 ± 0.014.

Sequence TTATGAATAT has a switch fluorescence ratio of 0.9824 ± 0.005.

Sequence TTATGAATGC has a switch fluorescence ratio of 0.999 ± 0.055.

Sequence TTATGACAGG has a switch fluorescence ratio of 0.993 ± 0.022.

For TTATGAGATA, the switch fluorescence ratio was 0.996 ± 0.035.

With TTATGAGGAC the switch fluorescence ratio was 1.03 ± 0.056.
